Biological target: HER3 on HER3-overexpressing HEK293 cells (human) (UniProt P21860)
Test: flow cytometry on cells; stable HEK293 cells expressing HER3 or HER4; purified NRG-1 mutants at 1 and 10 μg/mL, 4 °C, 1 h; goat antihuman Alexa Fluor 647

Sequence of HER3 on HER3-overexpressing HEK293 cells (human) (P21860 20-1342): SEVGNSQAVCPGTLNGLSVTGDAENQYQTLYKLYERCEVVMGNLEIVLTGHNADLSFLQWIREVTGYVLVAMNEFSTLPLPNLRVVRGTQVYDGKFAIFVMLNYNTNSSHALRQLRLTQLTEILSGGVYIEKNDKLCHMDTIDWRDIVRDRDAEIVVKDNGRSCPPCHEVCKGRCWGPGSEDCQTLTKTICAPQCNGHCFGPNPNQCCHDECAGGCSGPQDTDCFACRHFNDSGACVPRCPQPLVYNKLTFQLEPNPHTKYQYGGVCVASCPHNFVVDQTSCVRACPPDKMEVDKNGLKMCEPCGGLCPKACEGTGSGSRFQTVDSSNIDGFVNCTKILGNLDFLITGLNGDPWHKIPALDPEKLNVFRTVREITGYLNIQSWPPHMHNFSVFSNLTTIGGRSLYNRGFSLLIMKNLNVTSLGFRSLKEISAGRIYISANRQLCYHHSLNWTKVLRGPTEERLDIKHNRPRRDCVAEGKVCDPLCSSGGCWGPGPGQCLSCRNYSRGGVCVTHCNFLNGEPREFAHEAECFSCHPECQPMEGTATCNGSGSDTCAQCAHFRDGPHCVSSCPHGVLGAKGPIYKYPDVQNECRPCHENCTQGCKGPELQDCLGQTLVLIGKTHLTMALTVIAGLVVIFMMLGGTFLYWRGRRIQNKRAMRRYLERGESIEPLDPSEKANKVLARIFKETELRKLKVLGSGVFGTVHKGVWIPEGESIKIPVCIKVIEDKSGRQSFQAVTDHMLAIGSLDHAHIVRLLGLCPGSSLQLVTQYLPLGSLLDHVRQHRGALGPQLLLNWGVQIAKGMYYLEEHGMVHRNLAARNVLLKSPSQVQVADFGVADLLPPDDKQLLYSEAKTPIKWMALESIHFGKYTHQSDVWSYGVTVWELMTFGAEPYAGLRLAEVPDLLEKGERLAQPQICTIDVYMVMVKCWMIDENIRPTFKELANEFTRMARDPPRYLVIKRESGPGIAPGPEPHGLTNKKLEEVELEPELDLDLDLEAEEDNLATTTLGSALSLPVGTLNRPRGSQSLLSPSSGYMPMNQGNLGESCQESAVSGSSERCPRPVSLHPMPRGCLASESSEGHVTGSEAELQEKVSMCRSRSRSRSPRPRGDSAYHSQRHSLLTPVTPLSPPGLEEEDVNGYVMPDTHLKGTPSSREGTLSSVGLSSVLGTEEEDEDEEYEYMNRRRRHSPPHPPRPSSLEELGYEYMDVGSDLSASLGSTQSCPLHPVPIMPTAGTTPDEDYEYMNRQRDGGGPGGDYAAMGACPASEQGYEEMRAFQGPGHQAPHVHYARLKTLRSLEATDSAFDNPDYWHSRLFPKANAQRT

Row | Substance | ratio of median binding fluorescence to the parental clone
1 | NRG1-MFc variant H2E (Fc fusion) | < 0.8
2 | NRG1-MFc variant P29D (Fc fusion) | < 0.8
3 | NRG1-MFc variant T41A (Fc fusion) | < 0.8
4 | NRG1-MFc variant H2T (Fc fusion) | < 0.8
5 | NRG1-MFc variant K24G (Fc fusion) | < 0.8
6 | NRG1-MFc variant P29L (Fc fusion) | < 0.8
7 | NRG1-MFc variant E8L (Fc fusion) | < 0.8

From publication PMC7566517
